Experimental findings from publication PMC3988878, “Ultrastructural characterisation of Bacillus subtilis TatA complexes suggests they are too small to form homooligomeric translocation pores” (Biochimica et Biophysica Acta, 2013) are described below.

The data set concerns the molecule itself. The experiment in a line: SEC; Superdex 200 HR 10/30, calibrated; 240 μl of concentrated Talon eluate; 20 mM Trizma, 150 mM NaCl, 0.02% DDM; 0.5 ml/min; fractions immunoblotted for the His-tag.

B1: B. subtilis TatAd with a C-terminal His-tag (natural protein, UniProt O31467 1-70, looked up)
chain: MFSNIGIPGLILIFVIALIIFGPSKLPEIGRAAGRTLLEFKSATKSLVSGDEKEEKSAELTAVKQDKNAG
notes: TatAd, Bacillus subtilis, product of the tatAd-his gene in pBAD24 (pBAd-His); also called TatAd-His; TatAd complex; not shown: His6, C-terminal, kept
In the case of B1, the binding result is reported as “binds”.
